First the molecules themselves.
B1: MBP-Smad4^NES (peptide)
chain: YERVVSPGIDLSGLTLQ
B2: MBP-Mek1^NES (peptide)
chain: TNLEALQKKLEELELDEQ
B3: MBP-Iκβα^NES (peptide)
chain: {MBP}-EQMVKELQEIRLEPQ
modifications: reading uncertain
B4: MBP-eIF4E-transporter NES (4E-T^NES) (peptide)
chain: SVEEVEAGLKGLKVDQQVK
B5: MBP-Iκβε^NES (peptide)
chain: {MBP}-SLVLLPFDDLKISG
modifications: reading uncertain
B6: MBP-PP2A B56α^NES (peptide)
chain: REELWKKLEELKLKK
B7: MBP-Cpeb4^NES (peptide)
chain: RTFDMHSLESSIDIMR
B8: MBP-Snupn1^NES (peptide)
chain: MEELSQALASSFSVSQDLNS
B9: MBP-Paxillin^NES (peptide)
chain: RELDELMASLSDFKFMA
B10: MBP-hRio2^NES (peptide)
chain: RSFEMTEFNQALEEIKG
B11: MBP-X11L2^NES (peptide)
chain: SSLQELVQQFEALPGDLV
B12: MBP-Dusp6^NES (peptide)
chain: PLPVLGLGGLRISS
B13: MBP-mDia2^NES (peptide)
chain: SVPEVEALLARLRAL
B14: MBP-HIV Rev^NES (peptide)
chain: LQLPPLERLTLDC
B15: MBP-P73^NES (peptide)
chain: NFEILMKLKESLELMELVP
B16: MBP-Mek1^NES(E41A) (peptide)
chain: TNLEALQKKLEELALDEQ
B17: MBP-PKI^NESDE (peptide)
chain: NSNELALKLAGLDIDE

No end group written: not given here. MBP = not defined here

T2 sequence (O14980 whole entry E571K): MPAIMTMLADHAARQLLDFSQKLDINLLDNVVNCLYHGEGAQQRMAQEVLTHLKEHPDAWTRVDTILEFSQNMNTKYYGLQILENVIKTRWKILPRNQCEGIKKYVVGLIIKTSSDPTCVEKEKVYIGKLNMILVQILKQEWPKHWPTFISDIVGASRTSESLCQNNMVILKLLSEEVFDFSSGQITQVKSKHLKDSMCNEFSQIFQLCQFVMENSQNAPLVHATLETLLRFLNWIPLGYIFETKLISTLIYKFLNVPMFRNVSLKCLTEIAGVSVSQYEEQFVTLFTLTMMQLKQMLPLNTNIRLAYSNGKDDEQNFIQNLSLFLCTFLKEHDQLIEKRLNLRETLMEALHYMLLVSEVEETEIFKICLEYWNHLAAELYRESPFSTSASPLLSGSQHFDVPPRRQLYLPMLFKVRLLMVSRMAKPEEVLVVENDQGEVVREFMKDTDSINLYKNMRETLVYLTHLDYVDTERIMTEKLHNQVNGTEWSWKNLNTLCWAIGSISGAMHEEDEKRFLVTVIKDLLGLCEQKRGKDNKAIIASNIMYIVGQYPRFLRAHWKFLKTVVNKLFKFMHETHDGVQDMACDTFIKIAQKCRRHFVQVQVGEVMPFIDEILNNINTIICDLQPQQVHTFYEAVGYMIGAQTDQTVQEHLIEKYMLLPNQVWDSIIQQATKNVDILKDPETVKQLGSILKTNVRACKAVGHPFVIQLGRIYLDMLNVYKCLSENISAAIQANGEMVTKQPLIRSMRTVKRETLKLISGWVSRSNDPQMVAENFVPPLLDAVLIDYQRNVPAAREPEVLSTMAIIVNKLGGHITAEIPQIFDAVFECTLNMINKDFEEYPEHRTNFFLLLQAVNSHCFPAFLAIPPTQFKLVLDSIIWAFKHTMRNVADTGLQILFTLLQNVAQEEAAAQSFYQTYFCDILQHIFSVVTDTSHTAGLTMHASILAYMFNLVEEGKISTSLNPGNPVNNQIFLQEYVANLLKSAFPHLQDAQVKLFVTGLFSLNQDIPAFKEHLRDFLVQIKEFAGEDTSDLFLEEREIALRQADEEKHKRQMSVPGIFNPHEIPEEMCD
Chain of full-length human CRM1(E571K) (human) (O14980 whole entry E571K): as above
Chain of full-length human CRM1 (WT) (O14980 whole entry, other chains not shown): as the sequence (O14980 whole entry E571K) above, with K571E counted along it

The first experiment concerns the target full-length human CRM1(E571K) (human) (UniProt O14980). Description: differential photobleaching.
Details: not given
MBP-FMRP1b^NES (peptide) had a Kd of 9 µM.

A further experiment addresses full-length human CRM1 (WT) (Homo sapiens, UniProt O14980).
Experiment: not given
It counts as binding. Conditions: from photobleaching Kds.
As for “Mek1^NES(E41A) ({MBP}-TNLEALQKKLEELALDEQ; reading uncertain)”, the “tighter binding to WT CRM1 than the WT Mek1^NES” value is listed as 14 fold.

Another experiment deals with CRM1(E571K) (Homo sapiens, UniProt O14980, E571K).
Chain of CRM1(E571K) (O14980 whole entry E571K, other chains not shown): as the sequence (O14980 whole entry E571K) above
Experiment: not given
It counts as binding. Conditions: from photobleaching Kds.
For the molecule RELDELMASLSDFKFMA [Paxillin^NES], the “weaker binding to CRM1(E571K) than to WT CRM1” value is given as 4–10 fold.

Take REELWKKLEELKLKK [PP2A B56α^NES]: the “weaker binding to CRM1(E571K) than to WT CRM1” value is on record as 4–10 fold.

For the molecule TNLEALQKKLEELELDEQ [Mek1^NES], the “tighter (stronger) binding to CRM1(E571K) than to WT CRM1” value is listed as 14 fold.

Staying with this experiment, now noted: ratio of Kds from differential photobleaching assays.
Regarding RTFDMHSLESSIDIMR [Cpeb4^NES], the “Kd,E571K/Kd,WT” value is 3.2.

YERVVSPGIDLSGLTLQ [Smad4^NES]: the “Kd,E571K/Kd,WT” value was found to be 2.8.

As for SSLQELVQQFEALPGDLV [X11L2^NES], the “Kd,E571K/Kd,WT” value is 0.87.

In the case of MEELSQALASSFSVSQDLNS [Snupn1^NES], the “Kd,E571K/Kd,WT” value is given as 1.8.

As to NFEILMKLKESLELMELVP [P73^NES], the “Kd,E571K/Kd,WT” value was 0.75.

Regarding SVPEVEALLARLRAL [mDia2^NES], the “Kd,E571K/Kd,WT” value came out at 0.88.

LQLPPLERLTLDC [HIV Rev^NES]: the “Kd,E571K/Kd,WT” value stood at 2.3.

For RSFEMTEFNQALEEIKG [hRio2^NES], the “Kd,E571K/Kd,WT” value amounted to 0.79.

In the case of “SVEEVEAGLKGLKVDQQVK [eIF4E-transporter (4E-T^NES)]”, the “Kd,E571K/Kd,WT” value was found to be 10.

For “Paxillin^NES(K277A) ({MBP}-RELDELMASLSDFAFMA; reading uncertain)”, the “Kd,E571K/Kd,WT” value came to 2.1.

In the case of RELDELMASLSDFKFMA [Paxillin^NES], the “Kd,E571K/Kd,WT” value stood at 4.6.

In the case of SLVLLPFDDLKISG [Iκβε^NES], the “Kd,E571K/Kd,WT” value was determined as 3.3.

On to EQMVKELQEIRLEPQ [Iκβα^NES], for which the “Kd,E571K/Kd,WT” value stood at 0.95.

On to REELWKKLEELKLKK [PP2A B56α^NES], for which the “Kd,E571K/Kd,WT” value is 8.6.

On to TNLEALQKKLEELELDEQ [Mek1^NES], for which the “Kd,E571K/Kd,WT” value is 0.071.

Take LKEVDQLRALERLQID [FMRP1b^NES]: the “Kd,E571K/Kd,WT” value stood at 3.0.

In another experiment the test system is HEK 293 cells. Description: Immunostaining and confocal microscopy of endogenous RPS2 with and without LMB. The format is cell-based, human. Conditions: anti-RPS2 immunostaining, presence vs absence of LMB.
Consider `CCC(=C/[C@H](C)C/C=C/C(C)=C/[C@@H](C)C(=O)[C@@H](C)[C@H](O)[C@@H](C)C/C(C)=C/C(=O)O)/C=C/[C@@H]1OC(=O)C=C[C@@H]1C` [leptomycin B], for which the “subcellular localization of endogenous RPS2 upon CRM1 inhibition” value is listed as “not affected”.

The target of a further experiment is T1, full-length human CRM1 (wild type) (human, UniProt O14980 1-1071). Description: differential photobleaching.
T1 sequence (O14980 whole entry): as the sequence (O14980 whole entry E571K) above, with K571E counted along it
Details: not given
As to B1, the binding result was “binds”.

Regarding B2, the binding result was “binds”.

The target of the next experiment is T1, full-length human CRM1 (wild type). The experiment in a line: differential photobleaching.
Details: not given
This is another data set of the same source.
On to B3, for which the Kd was 22 µM. That is a double-digit micromolar value.

Consider B4, for which the Kd was 1.4 µM.

As to B5, the Kd stood at 3.6 µM.

In the case of B6, binding was characterised by a dissociation constant (Kd) of 4.4 µM. The Kd values of the last two molecules are within 1.5-fold of each other.

A further experiment addresses T2, full-length human CRM1(E571K) (human, UniProt O14980 1-1071, E571K). Description: differential photobleaching.
Details: not given
The molecule B7 returned a Kd of 1.9 µM.

For B1, the Kd was 13 µM.

For B8, binding was put at a Kd of 21 µM.

Molecule B9 displayed a Kd of 3.1 µM.

Consider B10, for which the Kd is 1.9 µM.

On to B3, for which binding was characterised by a dissociation constant (Kd) of 21 µM.

On to B11, for which the Kd turned out to be 1.3 µM.

Molecule B4 came in with a Kd of 14 µM.

With B5, the Kd came to 12 µM.

B12 registered a Kd of 14 µM. This Kd and that of the molecule before are within 1.5-fold of each other.

B13 displayed a Kd of 1.5 µM.

As to B14, the Kd is 4.1 µM.

For B15, the Kd was determined as 1.5 µM.

With B6, the Kd came out at 38 µM.

B2 returned a Kd of 0.005 µM. This Kd lies about 7600-fold lower than the previous one.

For the next experiment, the target named is T1, full-length human CRM1 (wild type).
Experiment: not given
Details: not given
B16 registered a Kd of 0.005 µM.

Another experiment deals with T2, full-length human CRM1(E571K).
Experiment: not given
Details: not given
Consider B17, for which the “fold tighter than to WT CRM1” value amounted to 3 fold.

B16: the Kd was determined as 0.006 µM. This lies in the single-digit nanomolar range.

The next experiment addresses full-length human CRM1(E571K) (human) (UniProt O14980). The experiment in a line: fluorescence polarisation.
Details: not given
(In general: Polarisation of emitted light reports the rotation of a fluorescent probe.)
As for “MBP-RPS2^NES (putative NES of 40S ribosomal protein S2) (peptide)”, the fold weaker than to WT CRM1 was found to be 16 fold.

As a reminder, the Kd is the concentration at which binding is half-saturated. A higher Kd goes with lower affinity.

For the origin of these results see paper PMC7525811 (Molecular Biology of the Cell, 2020).
